From PMC3402478, “ADP Ribosylation by PARP-1 Suppresses HOXB7 Transcriptional Activity”

Tests used:
[1] = target: PARP-1 (purified, Trevigen) (UniProt P09874 1-1014); assay: EMSA; EMSA: 50 mM Tris-HCl pH 7.5, 50 mM NaCl, 1 mM MgCl2, 0.5 mM DTT, 4% glycerol, 0.5 mM EDTA, 0.25 mg/ml poly(dI-dC), 20 min, gel at room temperature; ONP: 60 mM KCl, 12 mM HEPES pH 7.9, 4 mM Tris-HCl, 5% glycerol, 0.5 mM EDTA, 1 mM DTT, 4 C, 3 h; conditions: protein: commercial; label: 32P; blunt
GST-HOXB7 = GST-HOXB7 (UniProt P09629 1-217); assay: EMSA; no PARP-1; competed by 100-fold unlabeled probe; EMSA: 50 mM Tris-HCl pH 7.5, 50 mM NaCl, 1 mM MgCl2, 0.5 mM DTT, 4% glycerol, 0.5 mM EDTA, 0.25 mg/ml poly(dI-dC), 20 min, gel at room temperature; ONP: 60 mM KCl, 12 mM HEPES pH 7.9, 4 mM Tris-HCl, 5% glycerol, 0.5 mM EDTA, 1 mM DTT, 4 C, 3 h; conditions: protein: recombinant; tags: GST; label: 32P; blunt
Sequence of GST-HOXB7 (P09629 whole entry): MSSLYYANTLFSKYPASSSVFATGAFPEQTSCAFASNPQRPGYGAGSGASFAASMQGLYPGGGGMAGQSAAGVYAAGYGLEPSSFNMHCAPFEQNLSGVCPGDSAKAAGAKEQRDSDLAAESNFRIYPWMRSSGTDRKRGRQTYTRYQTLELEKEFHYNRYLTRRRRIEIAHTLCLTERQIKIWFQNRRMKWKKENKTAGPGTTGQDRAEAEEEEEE

Sequence of PARP-1 (purified, Trevigen) (P09874 whole entry): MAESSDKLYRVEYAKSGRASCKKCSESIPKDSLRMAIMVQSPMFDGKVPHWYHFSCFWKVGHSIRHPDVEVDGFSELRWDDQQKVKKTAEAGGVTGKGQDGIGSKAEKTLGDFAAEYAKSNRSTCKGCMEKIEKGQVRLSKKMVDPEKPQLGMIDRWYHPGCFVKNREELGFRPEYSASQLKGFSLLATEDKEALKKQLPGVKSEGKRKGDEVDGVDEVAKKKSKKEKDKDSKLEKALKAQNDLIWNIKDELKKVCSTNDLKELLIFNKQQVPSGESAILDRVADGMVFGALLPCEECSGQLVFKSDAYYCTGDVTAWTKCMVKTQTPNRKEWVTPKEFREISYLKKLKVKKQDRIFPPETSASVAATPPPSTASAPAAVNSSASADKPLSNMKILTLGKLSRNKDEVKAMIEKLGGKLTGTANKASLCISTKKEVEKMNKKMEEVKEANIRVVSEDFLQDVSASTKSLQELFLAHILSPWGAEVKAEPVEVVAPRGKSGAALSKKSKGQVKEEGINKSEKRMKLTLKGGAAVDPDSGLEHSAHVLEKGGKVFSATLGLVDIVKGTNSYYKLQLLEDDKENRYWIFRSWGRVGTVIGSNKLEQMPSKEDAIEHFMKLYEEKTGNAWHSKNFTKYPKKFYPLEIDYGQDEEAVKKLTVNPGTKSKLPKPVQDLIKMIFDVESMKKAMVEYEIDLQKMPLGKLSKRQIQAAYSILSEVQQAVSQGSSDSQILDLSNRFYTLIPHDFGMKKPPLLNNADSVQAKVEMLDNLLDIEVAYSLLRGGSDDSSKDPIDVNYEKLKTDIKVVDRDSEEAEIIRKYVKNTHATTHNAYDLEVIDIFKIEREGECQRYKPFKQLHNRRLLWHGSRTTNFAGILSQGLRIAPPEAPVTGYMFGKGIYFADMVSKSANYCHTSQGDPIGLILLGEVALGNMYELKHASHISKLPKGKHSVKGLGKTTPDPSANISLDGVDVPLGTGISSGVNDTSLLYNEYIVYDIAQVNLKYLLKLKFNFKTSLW

B1: HBS EMSA probe (dsDNA)
DNA 1: AAATATCAATTAAATCTTAATTATAA
DNA 2: TTATAATTAAGATTTAATTGATATTT
B1: no binding [1]; binds (GST-HOXB7).
